This note sets out measurements from PMC2810291, “Identification and characterization of endonuclein binding proteins: evidence of modulatory effects on signal transduction and chaperone activity” (BMC Biochemistry, 2009).

The assay deals with T1, recombinant endonuclein (human, UniProt Q13610 2-501).
T1 construct: human endonuclein, coding region Asn2-Ser501 of the 2309.2 cDNA, in the vector pT7-PL; also called IEF SSP 9502; PWP1 (yeast homologue's name)
The assay is described as follows: SPR; BIAcore 2000; endonuclein amine-coupled to a CM5 chip (3302 RU); analytes at 1 μM or 5 μM in 10 mM Hepes, 150 mM NaCl, 5 mM CaCl2, 1 mM EGTA, pH 7.4, 0.005% P20; control flow channel subtracted. The settings on record: both partners purified.

B1: recombinant TIP-1 as fusion protein with glutathion S-transferase (natural protein, UniProt O14907 1-124, looked up)
chain: MSYIPGQPVTAVVQRVEIHKLRQGENLILGFSIGGGIDQDPSQNPFSEDKTDKGIYVTRVSEGGPAEIAGLQIGDKIMQVNGWDMTMVTHDQARKRLTKRSEEVVRLLVTRQSLQKAVQQSMLS
notes: TIP-1, coding region of the cDNA amplified with primers from the start codon (ATG-TCC-TAC-ATC-CCG-GGC-CA) to the stop codon, in pGEX-4T3; pGEX-4T3 is known to place GST at the N-terminus; also called GST-TIP-1; source: E. coli, purified (pGEX, according to the manufacturer)
Regarding B1, the binding result is recorded as “binds”.
